Test results reported in patent US20060142192A1 (ZymoGenetics, published 2006).

What was measured:
Experiment in all cases: flow cytometry, biotinylated ligand + streptavidin-PE on stably transfected BHK cells
[1] = target: T1, human IL-17F (biotinylated) (human, UniProt Q96PD4 31-163, biotin label (sites not given))
T1 sequence (looked up): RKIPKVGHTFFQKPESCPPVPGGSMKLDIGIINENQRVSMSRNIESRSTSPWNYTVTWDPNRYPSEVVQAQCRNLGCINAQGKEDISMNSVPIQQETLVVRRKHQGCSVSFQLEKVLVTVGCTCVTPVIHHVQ

[2] = target: T2, human IL-17B (biotinylated) (human, UniProt Q9UHF5 21-180, biotin label (sites not given))
T2 sequence (looked up): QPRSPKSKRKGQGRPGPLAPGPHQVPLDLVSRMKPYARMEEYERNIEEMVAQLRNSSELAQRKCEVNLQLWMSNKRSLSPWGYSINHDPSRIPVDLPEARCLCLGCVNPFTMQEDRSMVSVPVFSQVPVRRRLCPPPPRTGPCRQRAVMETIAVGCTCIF

[3] = target: T3, human IL-17A (biotinylated) (human, UniProt Q16552 24-155, biotin label (sites not given))
T3 sequence (looked up): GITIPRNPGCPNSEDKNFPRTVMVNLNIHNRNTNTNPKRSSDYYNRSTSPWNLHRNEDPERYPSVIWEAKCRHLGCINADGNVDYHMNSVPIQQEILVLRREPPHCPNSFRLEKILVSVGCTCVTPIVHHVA

[4] = target: T4, human IL-17D (biotinylated) (human, UniProt Q8TAD2 18-202, limits assumed, biotin label (sites not given))
T4 sequence (looked up): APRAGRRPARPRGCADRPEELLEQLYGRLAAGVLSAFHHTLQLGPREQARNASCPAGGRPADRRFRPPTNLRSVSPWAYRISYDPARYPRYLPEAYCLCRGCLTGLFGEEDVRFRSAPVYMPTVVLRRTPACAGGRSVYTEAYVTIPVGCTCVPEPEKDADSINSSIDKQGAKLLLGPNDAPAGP

Measured: binding result

B1: human ZcytoR21x3 (receptor)
chain: AGIGFRHLPHWNTRCPLASHTVFNGASSTSWCRNPKSLPHSSSIGDTRCQHLLRGSCCLVVTCLRRAITFPSPPQTSPTRDFALKGPNLRIQRHGKVFPDWTHKGPEFSFDLLPEARAIRVTISSGPEVSVRLCHQWALECEELSSPYDVQKIVSGGHTVELPYEFLLPCLCIEASYLQEDTVRRKKCPFQSWPEAYGSDFWKSVHFTDYSQHTQMVMALTLRCPLKLEAALCQRHDWHTLCKDLPNATARESDGWYVLEKVDLHPQLCFKFSFGNSSHVECPHQTGITEARDWPSHIQVSCSPGVPIREPQTSNCLWFVRNEATQQEARGSSPVSLDLIIPFLRPGCCVLVWRSDVQFAWKHLLCPDVSYRHLGLLILALLALLTLLGVVLALTCRRPQSGPGPARPVLLLHAADSEAQRRLVGALAELLRAALGGGRDVIVDLWEGRHVARVGPLPWLWAARTRVAREQGTVLLLWSGADLRPVSGPDPRAAPLLALLHAAPRPLLLLAYFSRLCAKGDIPPPLRALPRYRLLRDLPRLLRALDARPFAEATSWGRLGARQRRQSRLELCSRLEREAARLADLG
notes: also called hcytor21x3
no binding: all assays above
